Data published in PMC4136698.

Target: SNAP tag–polyproline peptide fusion (…)
Experiment: pull-down

Src^Y527F (from UniProt P00523 84-533) (enzyme)
percent of kinase retained by the immobilized SH3 domain ligand: 74% | percent of total kinase retained on beads: 11%
